# In patent US20240287172A1 (SCIRHOM, published 2024):
# Changes are numbered by the printed parent chain.
# T1: hiR2-FL-E617D-T7 (human, UniProt Q6PJF5 1-856)
# T1 sequence: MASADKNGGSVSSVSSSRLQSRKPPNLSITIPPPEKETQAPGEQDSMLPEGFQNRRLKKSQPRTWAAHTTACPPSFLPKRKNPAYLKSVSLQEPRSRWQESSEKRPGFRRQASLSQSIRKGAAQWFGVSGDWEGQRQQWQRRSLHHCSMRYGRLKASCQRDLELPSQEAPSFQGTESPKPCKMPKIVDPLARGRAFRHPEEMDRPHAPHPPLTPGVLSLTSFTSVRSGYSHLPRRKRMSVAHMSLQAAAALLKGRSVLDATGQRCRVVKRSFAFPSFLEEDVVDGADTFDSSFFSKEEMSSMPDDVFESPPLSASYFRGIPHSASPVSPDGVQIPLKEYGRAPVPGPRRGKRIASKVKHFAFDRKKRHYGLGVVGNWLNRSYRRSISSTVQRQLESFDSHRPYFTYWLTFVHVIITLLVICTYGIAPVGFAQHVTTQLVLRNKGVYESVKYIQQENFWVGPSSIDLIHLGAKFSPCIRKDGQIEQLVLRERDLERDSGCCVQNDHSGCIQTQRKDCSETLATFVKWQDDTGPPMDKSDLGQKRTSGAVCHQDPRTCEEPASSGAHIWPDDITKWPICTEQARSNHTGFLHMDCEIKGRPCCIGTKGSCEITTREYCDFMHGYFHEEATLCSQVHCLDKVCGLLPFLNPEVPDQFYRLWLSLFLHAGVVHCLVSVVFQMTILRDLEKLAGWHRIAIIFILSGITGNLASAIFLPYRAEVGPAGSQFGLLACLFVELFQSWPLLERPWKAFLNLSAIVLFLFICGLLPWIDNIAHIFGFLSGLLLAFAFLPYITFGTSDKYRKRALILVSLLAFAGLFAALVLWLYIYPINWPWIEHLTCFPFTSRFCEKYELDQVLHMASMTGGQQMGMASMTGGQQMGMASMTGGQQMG
# B1: antibody 48 (antibody, V domains shown)
# VH: QVQLQQSGTELVRPGTSVKVSCKASGYAFTNYLIEWVKQRPGQGLEWIGVINPGSGFTKYNEKFKGKATLTADKSSSTVYMHLSSLTSEDSAVYFCARGLYRAMDYWGQGTSVTVSS
# VL: DIQMTQSPASQSASLGESVTITCLASQTIATWLAWYQQKPGKSPQLLIYGATTLADGVPSRFSGGGSGTKFSFKISSLQAEDFVSYYCQQLYSTPYTFGGGTKLEIK
# notes: mouse IgG, kappa light chain; also called clone #48; purified antibody 48
# B2: antibody 50 (antibody, V domains shown)
# VH: B1 VH with T9A, T16A, T30S, V79A, H82Q
# VL: B1 VL with A30G, G50A, T52A, T53S, S85N, L91I
# notes: mouse IgG, kappa light chain; also called clone #50; purified antibody 50
# Biological target: T1, hiR2-FL-E617D-T7
# Assay: FACS, MEF-DKO cells, 3 µg/ml
# How it was run: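 MEF-DKO cells expressing T7-tagged full-length hiR2 point mutants were stained on ice for 1 h with purified antibodies at 3 μg/ml in FACS buffer. Detection used PE-conjugated goat anti-mouse IgG F(ab′)2 (1:100, 1 h on ice), read by flow cytometry; buffer-only wells served as controls.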
row,Binder,loss of binding vs wild type [%]
1,B1,≥ 30
2,B2,≥ 30
